One block for each binder: values may come before it.
Columns and labels:
[1] = target: T1, recombinant soluble PSMA (rsPSMA) (human, UniProt Q04609 44-750); experiment: Biacore, mAb captured on anti-human IgG, rsPSMA in flow; crude supernatant
T1 construct: Oligomeric state of the preparation not specified in the assay concerned; also called secreted rsPSMA; PSMAECTO
Experimental: (§1) To determine the kinetics and affinity of the antibodies, the antibodies in crude supernatants, in purified form and in bifunctional chelate modified forms were analyzed using a Biacore 3000 instrument (Biacore Inc., Piscataway, N.J.). Biacore 3000 is a fully automated surface plasmon resonance (SPR)-based biosensor system that is designed to provide real-time kinetic data from assay formats that require no tags or labeling of compounds for biomolecular interactions. It is ideal for screening crude supernatants.
(§2) The streptavidin-coated sensor chips (SA chips, Biacore) were used to capture biotinylated anti-human IgG antibody (Sigma, St. Louis, Mo.). The entire sensor chip surface was conditioned with five injections of conditioning solution (1 M NaCl, 50 mM NaOH) and equilibrated with PBS buffer containing 0.005% polysorbate 20. Two to three thousand resonance units (RU) of biotinylated anti-human IgG antibody (Sigma) were immobilized onto the SA chip followed by an injection of regeneration buffer (glycine-HCl, pH 2.2). […] For each antibody at one concentration, the chip was regenerated and equilibrated. […] Thermodynamic and kinetic rate constants of binding were calculated using the Biacore Evaluation software.

[2] = target: T1, recombinant soluble PSMA (rsPSMA); experiment: Biacore, purified mAb captured, rsPSMA in flow
Experimental: as §1, §2

[3] = target: T2, prostate specific membrane antigen (PSMA), full-length human (human, UniProt Q04609 1-750); experiment: cell-based or functional assay
T2 sequence (Q04609 whole entry): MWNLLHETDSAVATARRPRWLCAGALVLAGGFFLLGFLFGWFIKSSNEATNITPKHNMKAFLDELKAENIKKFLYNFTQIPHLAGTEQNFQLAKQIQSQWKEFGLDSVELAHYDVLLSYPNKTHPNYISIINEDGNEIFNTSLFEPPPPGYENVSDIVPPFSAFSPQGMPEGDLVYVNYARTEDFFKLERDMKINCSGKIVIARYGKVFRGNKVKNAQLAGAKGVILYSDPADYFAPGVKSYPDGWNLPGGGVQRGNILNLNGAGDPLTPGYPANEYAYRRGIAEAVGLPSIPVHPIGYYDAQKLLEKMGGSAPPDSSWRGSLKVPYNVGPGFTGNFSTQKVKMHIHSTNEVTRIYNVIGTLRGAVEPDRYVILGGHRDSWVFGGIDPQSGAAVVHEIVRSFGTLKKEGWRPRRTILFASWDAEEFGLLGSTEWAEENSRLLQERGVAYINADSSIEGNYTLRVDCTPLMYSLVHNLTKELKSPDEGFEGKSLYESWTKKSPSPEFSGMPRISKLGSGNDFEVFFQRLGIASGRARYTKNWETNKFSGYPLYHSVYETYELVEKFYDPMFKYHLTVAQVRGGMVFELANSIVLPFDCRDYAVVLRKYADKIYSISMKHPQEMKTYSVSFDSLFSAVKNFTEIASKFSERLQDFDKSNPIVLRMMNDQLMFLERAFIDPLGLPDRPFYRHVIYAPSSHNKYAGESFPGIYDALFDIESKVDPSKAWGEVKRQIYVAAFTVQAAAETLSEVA

[4] = target: T2, prostate specific membrane antigen …; experiment: cell-based or functional assay; remark: listed apart in the source

T1 sequence (Q04609 44-750): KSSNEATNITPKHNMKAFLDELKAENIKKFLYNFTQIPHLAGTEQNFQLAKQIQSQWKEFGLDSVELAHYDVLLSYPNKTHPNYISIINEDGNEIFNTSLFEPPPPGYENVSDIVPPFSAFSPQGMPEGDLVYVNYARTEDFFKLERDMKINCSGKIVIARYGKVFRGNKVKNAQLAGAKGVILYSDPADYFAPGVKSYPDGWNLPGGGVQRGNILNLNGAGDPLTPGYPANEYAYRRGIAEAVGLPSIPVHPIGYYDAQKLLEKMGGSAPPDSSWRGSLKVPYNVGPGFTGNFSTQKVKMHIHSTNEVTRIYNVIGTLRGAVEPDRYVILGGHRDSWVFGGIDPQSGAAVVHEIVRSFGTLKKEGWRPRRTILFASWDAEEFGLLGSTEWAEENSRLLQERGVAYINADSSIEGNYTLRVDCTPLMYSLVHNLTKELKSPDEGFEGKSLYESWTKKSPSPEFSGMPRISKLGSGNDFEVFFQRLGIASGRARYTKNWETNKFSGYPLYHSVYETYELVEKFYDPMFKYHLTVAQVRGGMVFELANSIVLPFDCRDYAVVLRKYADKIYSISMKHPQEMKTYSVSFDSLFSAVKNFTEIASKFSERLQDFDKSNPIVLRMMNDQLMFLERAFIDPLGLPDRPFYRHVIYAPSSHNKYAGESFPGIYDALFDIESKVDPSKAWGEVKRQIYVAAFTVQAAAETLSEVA

- koff [1]: 0.000363 s⁻¹
- Kd [2]: 0.217 nM
B1: PSMA 10.3 (antibody, V domains shown)
VH: QEQLVESGGGVVQPGRSLRLSCAASGFTFSTYGMHWVRQAPGKGLEWVAVTWHDGSNKYYADSVKGRFTISRDNSKNTLYLQMNSLRAEDTAVYYCARGGVGATYYYYYGMDVWGQGTTVTVSS
VL: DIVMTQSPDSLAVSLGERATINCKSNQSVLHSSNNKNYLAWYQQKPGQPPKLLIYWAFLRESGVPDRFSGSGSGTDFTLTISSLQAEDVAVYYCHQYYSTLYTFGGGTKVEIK
notes: human antibody from XenoMouse

B2: 225Ac labeled mAb 026 (antibody, human IgG1, V domains shown)
VH: QVQLVESGGGVVQPGRSLRLSCAASGFTFSNYVMHWVRQAPGKGLEWVAIIWYDGSNKYYADSVKGRFTISRDNSKNTLYLQMNSLRAEDTAVYYCAGGYNWNYEYHYYGMDVWGQGTTVTVSS
VL: DIQMTQSPSSLSASVGDRVTITCRASQGITNYLAWFQQKPGKAPKSLIYAASSLQSGVPSKFSGSGSGTDFSLTISSLQPEDFATYYCQQYNSYPITFGQGTRLEIK
modifications: 225Ac chelated by bifunctional DOTA conjugated to the antibody, sites not stated
- IC50, cell survival (Alamar Blue) of C4-2 and LNCaP cells [3]: < 1 nCi/mL
- IC50, cell survival of C4-2 cells by 3H thymidine incorporation [3]: 0.12 nCi/mL
- selectivity of killing, C4-2 vs PC3 [3]: > 50 fold

- PSMA+/PSMA- Ratio of tumor uptake, Mean [4]: 5.55
B3: 026 (antibody, V domains shown)
VH: B2 VH
VL: B2 VL

- PSMA+/PSMA- Ratio of tumor uptake, Mean [4]: 4.27
B4: 006 (antibody, V domains shown)
VH: QVQLVESGGGVVQPGRSLRLSCAASGFAFSRYGMHWVRQAPGKGLEWVAVIWYDGSNKYYADSVKGRFTISRDNSKNTQYLQMNSLRAEDTAVYYCARGGDFLYYYYYGMDVWGQGTTVTVSS
VL: DIQMTQSPSSLSASVGDRVTITCRASQGISNYLAWYQQKTGKVPKFLIYEASTLQSGVPSRFSGGGSGTDFTLTISSLQPEDVATYYCQNYNSAPFTFGPGTKVDIK

From patent publication US20040161776A1 (PSMA DEVELOPMENT, published 2004)
